Source: patent US20170190787A1 (INSERM INSTITUT NATIONAL DE LA SANT ET DE LA RECHERCHE M …, published 2017)

How the values were obtained:
[1] = molecular target: T1, EGFR fused to SNAP-tag, expressed on transfected HEK293T cells (UniProt P00533 25-1210, terbium cryptate donor fluorochrome (SNAP-Tb) covalently on the SNAP-tag); experiment: time resolved fluorescence (HTRF) on EGFR-ST transfected HEK293T cells; apparent affinity
T1 construct: whole, on cells; also called EGFR-ST; ErbB1-ST; not shown: SNAP-tag and FLAG tag (Cisbio plasmid)

[2] = molecular target: T1, EGFR fused to SNAP-tag, expressed on …; experiment: HTRF on living cells; D4E in the presence of a large amount of monovalent E10 blocking the E10 epitope
[3] = molecular target: T1, EGFR fused to SNAP-tag, expressed on …; experiment: HTRF on living cells; D4E in the presence of a large amount of monovalent D10 blocking the D10 epitope

| Binder | Kd [1] | Kd [2] | Kd [3] |
| --- | --- | --- | --- |
| biparatopic single domain antibody D6E (D10 - 6x(G4S) linker - E10) (bispecific antibody, also called bisdAb D6E) EVQLQESGGGLVQAGGSLRLSCAVSISRTIFSLYAMEWYRQPPGKQRDLVARIYRSGDTNYADSVKGRFTISRDNAKNTVYLQMNSLKPEDTGVYYCNSPAQDWPWGQGTQVTVSSAAAGGGGSGGGGSGGGGSGGGGSGGGGSGGGGSMAQVQLQESGGGLAQAGGSLRLSCAASGRTLSSYDMGWFRQAPGKEREFVTAINWGDLSTYYADSVKGRFTISRDNAKNTVYLQMNSLKPEDTAVYYCAARLRYTVSDPIFSRPDRYNYWGQGTQVTVSSAAAEQKLISEEDLNGAAHHHHHHGS | 6 nM |  |  |
| biparatopic single domain antibody D2E (D10 - 2x(G4S) linker - E10) (bispecific antibody, also called bisdAb D2E) EVQLQESGGGLVQAGGSLRLSCAVSISRTIFSLYAMEWYRQPPGKQRDLVARIYRSGDTNYADSVKGRFTISRDNAKNTVYLQMNSLKPEDTGVYYCNSPAQDWPWGQGTQVTVSSAAAGGGGSGGGGSMAQVQLQESGGGLAQAGGSLRLSCAASGRTLSSYDMGWFRQAPGKEREFVTAINWGDLSTYYADSVKGRFTISRDNAKNTVYLQMNSLKPEDTAVYYCAARLRYTVSDPIFSRPDRYNYWGQGTQVTVSSAAAEQKLISEEDLNGAAHHHHHHGS | 6 nM |  |  |
| biparatopic single domain antibody D4E (D10 - 4x(G4S) linker - E10) (bispecific antibody, also called bisdAb D4E) EVQLQESGGGLVQAGGSLRLSCAVSISRTIFSLYAMEWYRQPPGKQRDLVARIYRSGDTNYADSVKGRFTISRDNAKNTVYLQMNSLKPEDTGVYYCNSPAQDWPWGQGTQVTVSSAAAGGGGSGGGGSGGGGSGGGGSMAQVQLQESGGGLAQAGGSLRLSCAASGRTLSSYDMGWFRQAPGKEREFVTAINWGDLSTYYADSVKGRFTISRDNAKNTVYLQMNSLKPEDTAVYYCAARLRYTVSDPIFSRPDRYNYWGQGTQVTVSSAAAEQKLISEEDLNGAAHHHHHHGS | 6 nM | 22 nM | 100 nM |
